# B1: Mothers against decapentaplegic homolog 4 (Homo sapiens), Q13485 (parent)
# chain: MDNMSITNTPTSNDACLSIVHSLMCHRQGGESETFAKRAIESLVKKLKEKKDELDSLITAITTNGAHPSKCVTIQRTLDGRLQVAGRKGFPHVIYARLWRWPDLHKNELKHVKYCQYAFDLKCDSVCVNPYHYERVVSPGIDLSGLTLQSNAPSSMMVKDEYVHDFEGQPSLSTEGHSIQTIQHPPSNRASTETYSTPALLAPSESNATSTANFPNIPVASTSQPASILGGSHSEGLLQIASGPQPGQQQNGFTGQPATYHHNSTTTWTGSRTAPYTPNLPHHQNGHLQHHPPMPPHPGHYWPVHNELAFQPPISNHPAPEYWCSIAYFEMDVQVGETFKVPSSCPIVTVDGYVDPSGGDRFCLGQLSNVHRTEAIERARLHIGKGVQLECKGEGDVWVRCLSDHAVFVQSYYLDREAGRAPGDAVHKIYPSAYIKVFDLRQCHRQMQQQAATAQAAAAAQAAAVAGNIPGPGSVGGIAPAISLSAAAGIGVDDLRRLCILRMSFVKGWGPDYPRQSIKETPCWIEIHLHRALQLLDEVLHTMPIADPQPLD
# Variants of: B1
# Details: with p85b_human PIK3R2, O00459
# p85b_human PIK3R2, O00459, sequence (O00459 whole entry): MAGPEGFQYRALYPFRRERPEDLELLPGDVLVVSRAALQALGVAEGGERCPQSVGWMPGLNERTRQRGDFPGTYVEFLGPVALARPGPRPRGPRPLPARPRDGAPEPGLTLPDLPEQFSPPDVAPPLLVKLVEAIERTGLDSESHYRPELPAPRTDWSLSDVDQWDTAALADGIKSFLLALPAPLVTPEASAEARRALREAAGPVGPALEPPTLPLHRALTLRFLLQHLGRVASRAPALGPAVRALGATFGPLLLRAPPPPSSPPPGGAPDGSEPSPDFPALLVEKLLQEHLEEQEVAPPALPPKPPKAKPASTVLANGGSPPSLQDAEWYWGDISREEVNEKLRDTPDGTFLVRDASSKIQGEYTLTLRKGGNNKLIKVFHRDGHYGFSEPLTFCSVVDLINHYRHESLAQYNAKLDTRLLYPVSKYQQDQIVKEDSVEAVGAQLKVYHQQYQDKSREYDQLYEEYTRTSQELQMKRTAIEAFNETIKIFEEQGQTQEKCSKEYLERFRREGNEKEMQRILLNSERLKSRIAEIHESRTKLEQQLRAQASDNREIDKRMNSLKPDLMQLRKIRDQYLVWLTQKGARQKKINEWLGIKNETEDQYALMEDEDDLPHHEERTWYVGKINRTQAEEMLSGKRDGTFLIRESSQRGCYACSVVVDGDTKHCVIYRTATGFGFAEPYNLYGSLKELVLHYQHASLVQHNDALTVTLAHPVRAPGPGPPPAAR
row,effect of a mutation on the interaction,Variant
1,with no effect,G386D

# Variants of: B1
# Details: with dpod1_human POLD1, P28340
row,effect of a mutation on the interaction,Variant
1,with no effect,G386D

# Variants of: B1
# Details: with dpoe1_human POLE
row,effect of a mutation on the interaction,Variant
1,with no effect,G386D

# Variants of: B1
# Details: with 2aaa_human PPP2R1A
row,effect of a mutation on the interaction,Variant
1,with no effect,G386D

# Variants of: B1
# Details: with prdm1_human PRDM1, O75626
row,effect of a mutation on the interaction,Variant
1,with no effect,G386D

# Variants of: B1
# Details: with aapk2_human PRKAA2, P54646
# aapk2_human PRKAA2, P54646, sequence (P54646 whole entry, looked up): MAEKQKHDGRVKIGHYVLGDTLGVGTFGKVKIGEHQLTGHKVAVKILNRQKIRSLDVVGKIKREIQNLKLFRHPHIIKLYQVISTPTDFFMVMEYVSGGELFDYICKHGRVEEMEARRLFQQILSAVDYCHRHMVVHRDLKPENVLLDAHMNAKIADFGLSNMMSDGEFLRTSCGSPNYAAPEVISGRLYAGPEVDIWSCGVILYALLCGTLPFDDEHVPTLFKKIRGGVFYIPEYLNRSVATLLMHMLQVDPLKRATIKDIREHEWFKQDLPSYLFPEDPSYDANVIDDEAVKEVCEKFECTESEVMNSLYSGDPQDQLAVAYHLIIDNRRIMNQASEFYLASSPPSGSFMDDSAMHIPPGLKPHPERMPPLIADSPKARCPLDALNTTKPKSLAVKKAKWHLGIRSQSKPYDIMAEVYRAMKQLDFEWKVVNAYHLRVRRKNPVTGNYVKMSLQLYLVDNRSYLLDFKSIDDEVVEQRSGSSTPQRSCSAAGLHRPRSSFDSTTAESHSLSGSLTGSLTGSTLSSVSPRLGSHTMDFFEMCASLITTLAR
row,effect of a mutation on the interaction,Variant
1,with no effect,G386D

# Variants of: B1
# Details: with aakb2_human PRKAB2, O43741
row,effect of a mutation on the interaction,Variant
1,with no effect,G386D

# Variants of: B1
# Details: with prss8_human PRSS8, Q16651
row,effect of a mutation on the interaction,Variant
1,with no effect,G386D

# Variants of: B1
# Details: with ptk6_human PTK6, Q13882
row,effect of a mutation on the interaction,Variant
1,with no effect,G386D

# Variants of: B1
# Details: with tf65_human RELA
row,effect of a mutation on the interaction,Variant
1,with no effect,G386D

# Variants of: B1
# Details: with rheb_human RHEB
row,effect of a mutation on the interaction,Variant
1,with no effect,G386D

# Variants of: B1
# Details: with rictr_human RICTOR
row,effect of a mutation on the interaction,Variant
1,with no effect,G386D

# Variants of: B1
# Details: with rnf43_human RNF43, Q68DV7
row,effect of a mutation on the interaction,Variant
1,with no effect,G386D

# Variants of: B1
# Details: with ros1_human ROS1, P08922
row,effect of a mutation on the interaction,Variant
1,with no effect,G386D

# Variants of: B1
# Details: with rl5_human RPL5, P46777
row,effect of a mutation on the interaction,Variant
1,with no effect,G386D

# Variants of: B1
# Details: with ks6b1_human RPS6KB1, P23443
row,effect of a mutation on the interaction,Variant
1,with no effect,G386D

# Variants of: B1
# Details: with rptor_human RPTOR
row,effect of a mutation on the interaction,Variant
1,with no effect,G386D

# Variants of: B1
# Details: with runx1_human RUNX1, Q01196
# runx1_human RUNX1, Q01196, sequence (Q01196 whole entry): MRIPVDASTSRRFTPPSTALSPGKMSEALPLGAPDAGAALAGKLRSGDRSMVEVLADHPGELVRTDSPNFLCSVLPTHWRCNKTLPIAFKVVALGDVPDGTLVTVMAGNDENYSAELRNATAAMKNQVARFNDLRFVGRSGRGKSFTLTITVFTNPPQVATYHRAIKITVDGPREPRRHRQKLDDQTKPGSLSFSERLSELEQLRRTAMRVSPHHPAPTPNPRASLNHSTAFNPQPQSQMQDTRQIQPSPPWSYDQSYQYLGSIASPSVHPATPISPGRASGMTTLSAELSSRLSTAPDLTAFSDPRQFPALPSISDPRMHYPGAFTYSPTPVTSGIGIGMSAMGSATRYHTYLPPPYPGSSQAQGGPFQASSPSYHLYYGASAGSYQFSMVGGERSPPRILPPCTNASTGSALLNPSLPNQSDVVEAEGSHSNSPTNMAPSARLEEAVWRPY
row,effect of a mutation on the interaction,Variant
1,with no effect,G386D

# Variants of: B1
# Details: with ruvb1_human RUVBL1, Q9Y265
row,effect of a mutation on the interaction,Variant
1,with no effect,G386D

# Variants of: B1
# Details: with sdha_human SDHA
row,effect of a mutation on the interaction,Variant
1,with no effect,G386D

# Variants of: B1
# Details: with setb1_human SETDB1, Q15047
row,effect of a mutation on the interaction,Variant
1,with no effect,G386D

# Variants of: B1
# Details: with skp2_human SKP2, Q13309
row,effect of a mutation on the interaction,Variant
1,with no effect,G386D

# Variants of: B1
# Details: with smad1_human SMAD1, Q15797
row,effect of a mutation on the interaction,Variant
1,with no effect,G386D

# Variants of: B1
# Details: with smad2_human SMAD2, Q15796
# smad2_human SMAD2, Q15796, sequence (Q15796 whole entry): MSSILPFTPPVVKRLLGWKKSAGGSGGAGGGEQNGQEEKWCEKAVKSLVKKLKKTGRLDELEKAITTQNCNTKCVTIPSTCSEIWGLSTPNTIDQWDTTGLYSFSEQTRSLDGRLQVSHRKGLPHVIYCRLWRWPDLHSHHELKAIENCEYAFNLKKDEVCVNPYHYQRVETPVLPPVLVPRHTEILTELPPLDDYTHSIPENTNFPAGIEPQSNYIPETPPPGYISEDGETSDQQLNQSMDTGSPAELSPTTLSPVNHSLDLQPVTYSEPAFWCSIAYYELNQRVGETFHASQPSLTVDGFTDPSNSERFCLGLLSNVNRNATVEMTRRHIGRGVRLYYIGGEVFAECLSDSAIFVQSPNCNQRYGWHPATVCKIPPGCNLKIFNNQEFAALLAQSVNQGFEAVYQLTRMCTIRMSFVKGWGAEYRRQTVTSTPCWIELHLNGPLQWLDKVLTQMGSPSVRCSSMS
row,effect of a mutation on the interaction,Variant
1,with no effect,G386D

# Variants of: B1
# Details: with smad3_human SMAD3, P84022
row,effect of a mutation on the interaction,Variant
1,with no effect,G386D

# Variants of: B1
# Details: with smca4_human SMARCA4, P51532
# smca4_human SMARCA4, P51532, sequence (P51532 whole entry): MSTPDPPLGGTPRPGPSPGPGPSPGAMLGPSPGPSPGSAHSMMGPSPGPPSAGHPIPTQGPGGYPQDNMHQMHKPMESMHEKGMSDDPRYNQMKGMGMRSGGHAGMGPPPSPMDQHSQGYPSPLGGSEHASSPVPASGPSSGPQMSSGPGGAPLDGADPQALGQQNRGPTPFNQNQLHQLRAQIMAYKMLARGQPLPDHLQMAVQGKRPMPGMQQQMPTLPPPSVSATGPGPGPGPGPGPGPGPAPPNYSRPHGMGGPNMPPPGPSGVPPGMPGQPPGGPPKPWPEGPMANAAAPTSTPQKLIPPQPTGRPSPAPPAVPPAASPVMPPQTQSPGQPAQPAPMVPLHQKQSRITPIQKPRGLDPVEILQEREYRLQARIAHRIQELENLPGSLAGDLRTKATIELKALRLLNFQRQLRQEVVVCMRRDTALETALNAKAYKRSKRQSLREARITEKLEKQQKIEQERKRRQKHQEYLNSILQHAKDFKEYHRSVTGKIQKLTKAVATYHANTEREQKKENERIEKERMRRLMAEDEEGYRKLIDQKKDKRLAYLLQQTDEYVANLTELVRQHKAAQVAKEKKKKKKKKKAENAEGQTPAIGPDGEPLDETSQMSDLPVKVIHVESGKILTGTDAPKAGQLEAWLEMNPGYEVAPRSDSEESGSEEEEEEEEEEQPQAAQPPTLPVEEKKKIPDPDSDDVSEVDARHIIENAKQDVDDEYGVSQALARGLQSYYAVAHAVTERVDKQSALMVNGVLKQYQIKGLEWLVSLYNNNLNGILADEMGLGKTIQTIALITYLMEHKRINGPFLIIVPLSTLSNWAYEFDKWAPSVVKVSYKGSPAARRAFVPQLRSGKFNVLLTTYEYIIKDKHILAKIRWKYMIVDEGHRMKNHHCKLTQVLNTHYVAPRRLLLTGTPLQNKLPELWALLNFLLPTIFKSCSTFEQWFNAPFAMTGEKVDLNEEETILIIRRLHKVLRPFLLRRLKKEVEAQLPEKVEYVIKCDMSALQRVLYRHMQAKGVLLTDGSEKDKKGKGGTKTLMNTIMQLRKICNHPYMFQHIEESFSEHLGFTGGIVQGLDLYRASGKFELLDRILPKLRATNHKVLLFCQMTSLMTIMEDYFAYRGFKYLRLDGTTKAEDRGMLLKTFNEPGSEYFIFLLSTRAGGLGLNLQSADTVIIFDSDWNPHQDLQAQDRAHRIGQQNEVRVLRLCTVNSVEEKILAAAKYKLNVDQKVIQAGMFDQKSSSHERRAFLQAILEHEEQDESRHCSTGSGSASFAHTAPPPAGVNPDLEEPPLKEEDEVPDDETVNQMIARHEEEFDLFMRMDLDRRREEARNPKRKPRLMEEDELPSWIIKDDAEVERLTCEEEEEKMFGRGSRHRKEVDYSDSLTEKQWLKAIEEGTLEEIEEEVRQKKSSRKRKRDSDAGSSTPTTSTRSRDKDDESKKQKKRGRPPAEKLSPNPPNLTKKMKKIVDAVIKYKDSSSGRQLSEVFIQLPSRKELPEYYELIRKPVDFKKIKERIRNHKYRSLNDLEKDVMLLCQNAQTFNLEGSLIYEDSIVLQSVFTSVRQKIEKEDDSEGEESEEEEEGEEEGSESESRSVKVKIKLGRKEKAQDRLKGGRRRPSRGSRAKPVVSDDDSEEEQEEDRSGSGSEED
row,effect of a mutation on the interaction,Variant
1,with no effect,G386D

# Variants of: B1
# Details: with snf5_human SMARCB1, Q12824
# snf5_human SMARCB1, Q12824, sequence (Q12824 whole entry): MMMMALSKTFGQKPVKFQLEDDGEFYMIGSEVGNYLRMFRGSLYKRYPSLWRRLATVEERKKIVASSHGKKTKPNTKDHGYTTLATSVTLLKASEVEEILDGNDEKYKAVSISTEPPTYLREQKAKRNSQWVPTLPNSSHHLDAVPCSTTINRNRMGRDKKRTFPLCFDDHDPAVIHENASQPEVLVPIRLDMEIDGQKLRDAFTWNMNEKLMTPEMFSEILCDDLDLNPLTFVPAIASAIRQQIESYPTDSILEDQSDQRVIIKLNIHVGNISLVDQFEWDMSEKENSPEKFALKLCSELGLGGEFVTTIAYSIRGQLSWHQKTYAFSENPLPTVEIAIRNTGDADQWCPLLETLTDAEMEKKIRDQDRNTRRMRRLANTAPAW
row,effect of a mutation on the interaction,Variant
1,with no effect,G386D

# Variants of: B1
# Details: with smo_human SMO
row,effect of a mutation on the interaction,Variant
1,with no effect,G386D

# Variants of: B1
# Details: with socs1_human SOCS1, O15524
# socs1_human SOCS1, O15524, sequence (O15524 whole entry): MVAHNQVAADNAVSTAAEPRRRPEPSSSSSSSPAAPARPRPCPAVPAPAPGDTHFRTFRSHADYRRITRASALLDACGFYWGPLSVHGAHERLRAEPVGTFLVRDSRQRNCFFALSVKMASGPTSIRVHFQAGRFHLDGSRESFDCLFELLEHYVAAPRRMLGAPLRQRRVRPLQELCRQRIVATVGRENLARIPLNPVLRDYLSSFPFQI
row,effect of a mutation on the interaction,Variant
1,with no effect,G386D

# Variants of: B1
# Details: with sox10_human SOX10, P56693
row,effect of a mutation on the interaction,Variant
1,with no effect,G386D

# Variants of: B1
# Details: with sox2_human SOX2, P48431
row,effect of a mutation on the interaction,Variant
1,with no effect,G386D

# Variants of: B1
# Details: with sox3_human SOX3, P41225
row,effect of a mutation on the interaction,Variant
1,with no effect,G386D

# Variants of: B1
# Details: with sox4_human SOX4, Q06945
# sox4_human SOX4, Q06945, sequence (Q06945 whole entry): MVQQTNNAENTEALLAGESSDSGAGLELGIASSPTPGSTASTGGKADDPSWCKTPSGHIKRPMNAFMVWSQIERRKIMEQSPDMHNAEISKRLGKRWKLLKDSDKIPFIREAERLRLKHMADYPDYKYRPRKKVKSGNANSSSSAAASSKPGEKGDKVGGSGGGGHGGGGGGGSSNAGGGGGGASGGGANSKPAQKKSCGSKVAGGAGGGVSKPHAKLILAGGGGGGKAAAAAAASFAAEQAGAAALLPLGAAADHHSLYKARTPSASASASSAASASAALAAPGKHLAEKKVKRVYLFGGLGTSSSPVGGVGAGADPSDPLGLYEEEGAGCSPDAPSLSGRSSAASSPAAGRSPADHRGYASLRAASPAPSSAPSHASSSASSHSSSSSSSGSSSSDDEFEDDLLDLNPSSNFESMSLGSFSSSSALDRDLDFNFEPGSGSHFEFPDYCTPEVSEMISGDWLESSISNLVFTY
row,effect of a mutation on the interaction,Variant
1,with no effect,G386D

# Variants of: B1
# Details: with sox9_human SOX9, P48436
row,effect of a mutation on the interaction,Variant
1,with no effect,G386D

# Variants of: B1
# Details: with spop_human SPOP
row,effect of a mutation on the interaction,Variant
1,with no effect,G386D

# Variants of: B1
# Details: with src_human SRC
row,effect of a mutation on the interaction,Variant
1,with no effect,G386D

# Variants of: B1
# Details: with stat3_human STAT3, P40763
row,effect of a mutation on the interaction,Variant
1,with no effect,G386D

# Variants of: B1
# Details: with stk38_human STK38, Q15208
row,effect of a mutation on the interaction,Variant
1,with no effect,G386D

# Variants of: B1
# Details: with ksyk_human SYK
row,effect of a mutation on the interaction,Variant
1,with no effect,G386D

# Variants of: B1
# Details: with eloc_human ELOC
row,effect of a mutation on the interaction,Variant
1,with no effect,G386D
